Columns and labels:
MDA 445 = assay: Tumor cell proliferation, MDA 445; assay type: cell-based; conditions: MDA 445, 72 hours
Method: Cell Proliferation Assay. The effect of rK5 and rK5 peptides on endothelial cells were assessed using a proliferation assay with 1% BSA and 3 ng/ml bFGF in serum-free media. Relative cell numbers in each well of a 96 well microplate after incubation for 72 hours in the absence or presence of inhibitors were determined by using the AQueous cell proliferation assay (Promega, San Luis Obispo, Calif.). For all other cell lines tested for proliferation, minimal growth media was used (Cao, Y., Ji, R., Davidson, D., Schaller, J., Marti, D., Sohndel, S., McCance, S., O'Reilly, M., Llinas, M., and Folkman, J. Kringle domains of human angiostatin. Characterization of the anti-proliferative activity on endothelial cells. (1996) J. Biol. Chem. 271, 29461-29467). Results are presented as the percent inhibition of control cell (bFGF-induced) proliferation.

HMVEC = HMVEC (Homo sapiens, UniProt P11021); assay: VEGF-stimulated HMVEC migration (Boyden chamber); assay type: cell-based; conditions: read-out: inhibition of endothelial cell migration
Method: Endothelial cell migration assays: The effect of rK5 on endothelial cell migration was determined by two different methods. The first assay was performed in a 96 well plate with a cellulose membrane between the upper and lower chambers. HMVEC were starved of growth factors overnight, labeled with fluorescent calcein AM (50-100 nM), plated into a 96 well migration chamber (2.9×10^4/well) (Neuroprobe, Gaitherburg, Md.), and stimulated to migrate with VEGF (5 ng/mL). After 4 h, migrated cells were measured by fluorescence (Frevert C W, Wong V A, Goodman R B, Goodwin R, Martin T R. Rapid fluorescence-based measurement of neutrophil migration in vitro. J Immunol Methods. 1998 Apr. 1;213(1):41-52). In a second assay for cellular migration, a standard Boyden chamber was used (Polyerini, P. J., Bouck, N. P. & Rastinejad, F. Assay and purification of naturally occurring inhibitor of angiogenesis. Meth. Enzymol. 198, 440-450 (1991)). HMVEC cells were starved overnight in DME containing 0.1% bovine serum albumin (BSA) and harvested by scraping and resuspended in DME with 0.1% BSA at 1.5×10^6 cells per ml. Cells were added to the bottom of a 48-well, Boyden chamber. The chamber was assembled and inverted, and cells were allowed to attach for 2 hours at 37° C. to polycarbonate chemotaxis membranes (5 μm pore size) that had been soaked in 0.1% gelatin overnight and dried. The chamber was re-inverted, test substances, including activators were added to the wells of the upper chamber and the apparatus was incubated for 4 hours at 37° C. Growth factors were used, where indicated, at concentrations determined in preliminary experiments to give equivalent migration responses of about 100 cells migrated/high powered field (400×). […] Membranes were recovered, fixed and stained and the number of cells that had migrated to the upper chamber per 10 high power fields counted. Background migration to DME+0.1% BSA was subtracted and the data reported as the number of cells migrated per 10 high power fields (400×) or, when results from multiple experiments were combined, as the percent inhibition of migration compared to the positive growth factor control (Polyerini, P. J., Bouck, N. P. & Rastinejad, F. Assay and purification of naturally occurring inhibitor of angiogenesis. Meth. Enzymol. 198, 440-450 (1991)).

[1] = tested on: EAHY cell surface proteins (~75 kDa and ~95 kDa); assay: S-tag-K5 affinity pull-down of biotinylated EAHY surface proteins; assay type: binding; conditions: 100 nM S-tag-K5; 1 μM peptides, 10 μM cold rK5
Method: The second method used to identify cell surface rK5 binding proteins was described previously (Zhang, J. C., et al, supra). Surface proteins on 4×10^6 EaHy cells were labeled with NHS-biotin. The cells were washed and lysed (M-Per, Pierce). Cell lysates were mixed with S-tag K5 for 1 hour at room temperature. S-tag K5 bound proteins were precipitated with S-protein agarose (Pierce). Bound proteins were eluted with excess rK5 or with excess PRKLYDY (SEQ ID NO:1) peptide. Eluted proteins were visualized with avidin-HRP and a chemiluminescent substrate. Mass spectroscopic analysis was used to identify the major protein bands.
In particular, surface proteins on 1×10^6 EAHY cells were labeled with NHS-biotin. The cells were washed 3× with PBS and lysed with M-pur. Cell lysates were mixed with (A) 100 nM S-tag-K5, (B) 100 nM S-tag-K5 plus 1 μM PRKLYDY, (C) 100 nM S-tag-K5 plus 10 μM cold rK5 and (D) 100 nM S-tag-K5 and N-terminal K5 peptide at 1 μM for 1 hour at room temperature. The K5 binding proteins were precipitated with S-protein-agarose. Bound proteins were eluted with 50 mM glycine buffer at pH 3.0 and run for PAGE analysis. Surface proteins (biotinylated) that bind K5 were visualized with avidin-HPR and a chemiluminescent substrate.

fibroblasts = assay: Fibroblast migration; assay type: cell-based; conditions: concentrations up to 1000-fold higher than for endothelial cell migration; data not shown
tumor cell lines = assay: Apoptosis of various tumor cell lines under hypoxia; assay type: cell-based; conditions: 500 nM rK5, hypoxia overnight; exceptions Lewis Lung and PC-3
Method: (§1) FIG. 15B is a graph showing the effect of rK5 on induction of apoptosis in various tumor cell lines tested under hypoxic conditions. Cells were plated in 96-well plates overnight. Half the plates were put in hypoxic chambers overnight at 37° C. with and without 500 nM rK5. Increased apoptosis was shown by an ELISA technique that measures the number of nucleosome fragments. The apoptotic index was calculated from the apoptosis rate of control cells (without K5 and with or without hypoxia). The samples were run in quadruplicate.

[2] = tested on: HT1080 human fibrosarcoma cells; assay: Apoptosis of HT1080 cells under hypoxia; assay type: cell-based
Method: FIG. 15A is a graph showing the effect of rK5 on HT1080 human fibrosarcoma cells under hypoxic and non-hypoxic conditions. […] cells were plated on slides overnight with complete medium. Control slides were put in the incubator at 5% CO2 and 37° C. The other slide of cells was put in a hypoxic chamber with 95% N2, 5% CO2 at 37° C. for 24 hours. GRP78 on the cell surface was detected by IHC analysis with a polyclonal antibody to GRP78 conjugated to horseradish peroxidase. The GRP78 was visualized with the DAB reagent displaying a brown color.
as §1
FIG. 15C is a graph showing the effect of rK5 on hypoxia-stressed HT1090 cells transfected with an siRNA and a scrambled siRNA to GRP78. The transfected cells were plated in 96 well plates and placed at 5% CO2 and 37° C. rK5 (500 nM) was added to the cells and half were incubated in an hypoxic chamber with 95% N2, 5% CO2 at 37° C. and half were incubated at 5% CO2 and 37° C. for 24 hours. Apoptosis was shown by an ELISA technique mentioned above. The samples were run in quadruplicate.

Chain of HMVEC (P11021 19-654): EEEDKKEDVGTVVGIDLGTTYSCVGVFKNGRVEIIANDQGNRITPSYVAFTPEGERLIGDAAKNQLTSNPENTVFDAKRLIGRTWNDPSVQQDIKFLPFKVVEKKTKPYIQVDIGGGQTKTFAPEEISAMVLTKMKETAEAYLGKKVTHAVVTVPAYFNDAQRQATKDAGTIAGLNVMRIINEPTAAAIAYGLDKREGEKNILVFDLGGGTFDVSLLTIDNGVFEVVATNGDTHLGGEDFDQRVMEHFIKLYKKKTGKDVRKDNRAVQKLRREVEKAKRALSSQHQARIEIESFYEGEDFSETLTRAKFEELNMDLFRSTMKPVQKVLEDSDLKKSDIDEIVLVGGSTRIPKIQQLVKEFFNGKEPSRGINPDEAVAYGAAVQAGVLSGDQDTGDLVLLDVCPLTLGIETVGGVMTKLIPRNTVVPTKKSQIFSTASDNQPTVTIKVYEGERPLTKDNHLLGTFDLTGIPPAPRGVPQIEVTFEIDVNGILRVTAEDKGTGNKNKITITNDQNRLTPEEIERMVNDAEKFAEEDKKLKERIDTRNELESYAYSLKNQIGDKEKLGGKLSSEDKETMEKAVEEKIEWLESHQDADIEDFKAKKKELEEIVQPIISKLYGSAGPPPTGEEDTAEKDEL

B1: rK5: recombinant kringle 5 fragment of human plasminogen (residues 450-543), expressed in E. coli or yeast (protein)
chain: LLPDVETPSEEDCMFGNGKGYRGKRATTVTGTPCQDWAAQEPHRHSIFTPETNPRAGLEKNYCRNPDGDVGGPWCYTTNPRKLYDYCDVPQCAA
IC50 values for cell proliferation (MDA 445): >100 µg/mL | IC50 (HMVEC): 0.25 nM | competition of protein binding to the S-tag K5 column [1]: competed | inhibition of migration of fibroblasts (fibroblasts): failed to inhibit | induction of apoptosis in tumor cell lines under hypoxic conditions (tumor cell lines): induced apoptosis in 8 out of 10 tumor cell lines | activity on hypoxia-stressed GRP78 siRNA transfected HT1080 cells ([2]; hypoxia, GRP78 siRNA transfected, rK5 500 nM): significantly eliminated the activity of rK5 | increase in apoptosis under hypoxic conditions ([2]; hypoxic conditions, within 24 hours): greater than two-fold increase in apoptosis | effect on cellular apoptosis without hypoxia ([2]; without hypoxia): no significant effect
